Results: patent publication US20090098112A1 (Genentech, published 2009)

Experiments:
[1] = target: T1, recombinant human integrin α5β1 (R&D) (human, UniProt P08648 42-995; P05556 21-728); assay: SPR (BIACORE-3000), antibody immobilized on CM5 chip (about 450 RU), human integrin α5β1 injected 300 nM to 0.29 nM, 25 °C, 1:1 Langmuir fit
T1 construct: Bought recombinant heterodimer (R&D); It was used coated on plates and in solution in the phage ELISA, and as analyte or immobilized in BIAcore; also called alpha5beta1; a5b1
T1 sequence (P08648 42-995 limits assumed, chain 1 of 2): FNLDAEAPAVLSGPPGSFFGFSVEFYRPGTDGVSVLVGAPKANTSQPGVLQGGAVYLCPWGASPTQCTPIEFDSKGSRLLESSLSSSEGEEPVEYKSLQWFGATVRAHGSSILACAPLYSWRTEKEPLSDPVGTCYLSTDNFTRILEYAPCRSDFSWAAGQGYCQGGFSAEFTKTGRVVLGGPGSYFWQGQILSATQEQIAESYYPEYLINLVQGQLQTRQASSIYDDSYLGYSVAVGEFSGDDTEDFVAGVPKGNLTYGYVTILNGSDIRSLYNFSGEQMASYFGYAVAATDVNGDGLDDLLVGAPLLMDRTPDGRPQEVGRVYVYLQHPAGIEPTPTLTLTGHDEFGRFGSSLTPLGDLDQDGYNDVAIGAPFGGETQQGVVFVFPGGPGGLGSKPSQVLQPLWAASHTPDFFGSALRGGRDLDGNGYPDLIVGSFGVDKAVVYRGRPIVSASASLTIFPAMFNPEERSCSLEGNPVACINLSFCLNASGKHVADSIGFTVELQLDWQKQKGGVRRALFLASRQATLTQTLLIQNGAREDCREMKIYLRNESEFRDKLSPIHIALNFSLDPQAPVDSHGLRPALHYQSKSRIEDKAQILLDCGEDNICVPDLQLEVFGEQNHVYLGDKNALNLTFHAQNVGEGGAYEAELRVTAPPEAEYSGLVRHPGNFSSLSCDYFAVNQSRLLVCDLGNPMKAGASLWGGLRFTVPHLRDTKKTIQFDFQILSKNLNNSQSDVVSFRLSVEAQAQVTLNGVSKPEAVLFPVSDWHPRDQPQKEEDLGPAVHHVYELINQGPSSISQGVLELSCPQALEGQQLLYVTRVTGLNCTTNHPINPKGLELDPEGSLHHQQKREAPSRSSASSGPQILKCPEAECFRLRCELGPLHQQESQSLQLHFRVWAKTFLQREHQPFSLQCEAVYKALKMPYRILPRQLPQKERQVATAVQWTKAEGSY
T1 sequence (P05556 21-728 limits assumed, chain 2 of 2): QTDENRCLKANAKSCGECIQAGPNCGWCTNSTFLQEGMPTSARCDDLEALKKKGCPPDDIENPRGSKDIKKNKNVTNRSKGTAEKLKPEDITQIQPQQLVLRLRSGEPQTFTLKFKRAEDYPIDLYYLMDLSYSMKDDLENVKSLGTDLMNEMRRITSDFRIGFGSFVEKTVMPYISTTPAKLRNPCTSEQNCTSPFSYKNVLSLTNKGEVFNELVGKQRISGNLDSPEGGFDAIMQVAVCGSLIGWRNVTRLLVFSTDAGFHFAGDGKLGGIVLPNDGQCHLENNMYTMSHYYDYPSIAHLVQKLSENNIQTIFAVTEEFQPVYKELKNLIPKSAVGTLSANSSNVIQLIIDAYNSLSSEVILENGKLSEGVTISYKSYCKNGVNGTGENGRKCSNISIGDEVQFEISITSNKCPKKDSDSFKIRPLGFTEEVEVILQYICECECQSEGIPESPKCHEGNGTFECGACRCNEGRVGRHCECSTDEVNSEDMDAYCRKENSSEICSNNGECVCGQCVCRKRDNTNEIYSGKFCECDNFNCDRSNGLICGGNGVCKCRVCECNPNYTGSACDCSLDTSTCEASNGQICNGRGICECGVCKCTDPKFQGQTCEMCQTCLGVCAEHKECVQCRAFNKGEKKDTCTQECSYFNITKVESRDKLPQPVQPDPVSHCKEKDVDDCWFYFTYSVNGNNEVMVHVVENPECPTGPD
Method: (§1) FIG. 3 depicts the results of a BIACORE® analysis of chimeric 7H5-IgG and humanized 7H5.v1-IgG against human integrin α5β1.
(§2) Affinity determinations were performed by surface-plasmon resonance using a BIACORE™-3000 instrument. Immobilization was achieved by random coupling through amino groups using a protocol provided by the manufacturer. Two different formats were operated to study binding kinetics for antibody against human integrin α5β1. In FIGS. 3A, 7, and 9A, antibodies were immobilized on a CM5 sensor chip around 450 response units (RU), and 2-fold serial diluted concentrations of human integrin α5β1 (300 nM to 0.29 nM) in PBT buffer (0.05% Tween 20 in PBS) were injected with a flow rate of 30 μl/min at 25° C. In FIGS. 3B and 9B, human integrin […] was immobilized on a CM5 sensor chip around 800 RU, and 2-fold serial diluted concentrations of antibodies (200 nM to 0.2 nM) in PBT buffer (0.05% Tween 20 in PBS) were injected with a flow rate of 30 μl/min at 25° C. After each injection, the chip was regenerated using 10 mM Glycine-HCl buffer at pH 1.7. Binding response was corrected by subtracting the RU from a blank flow cell. Association rates (kₒₙ) and dissociation rates (koff) were calculated using a simple one-to-one Langmuir binding model (BIAcore Evaluation Software version 3.2). The equilibrium dissociation constant (Kd) was calculated as the ratio koff/kₒₙ.

[2] = target: T1, recombinant human integrin α5β1 (R&D); assay: SPR (BIACORE-3000), human integrin α5β1 (R&D) immobilized on CM5 chip (about 800 RU), antibody injected 200 nM to 0.2 nM, 25 °C, 1:1 Langmuir fit
Method: as §1, §2

[3] = target: T1, recombinant human integrin α5β1 (R&D); assay: SPR (BIACORE-3000), antibody immobilized on CM5 chip (about 450 RU), human integrin α5β1 injected 300 nM to 0.29 nM, 25 °C, 1:1 Langmuir fit; remark: listed apart in the source
Method: FIG. 7 depicts the results of a BIACORE® analysis of humanized 7H5.v1, v2 and v3-IgG against human integrin α5β1. […] Humanized 7H5.v2 indicates the most binding affinity improvement in off-rate.
as §2

B1: h7H5.v1 (antibody, human IgG1, V domains shown)
VH: EVQLVESGGGLVQPGGSLRLSCAASGYTFTDYYLYWVRQAPGKGLEWIGGISPSNGGTTFNDNFENKATLSVDKSKNTAYLQMNSLRAEDTAVYYCTRDAYGDWYFDVWGQGT
VL: DIQMTQSPSSLSASVGDRVTITCKASQNVGSDVAWYQQKPGKAPKTLIYSTSYRYSGVPSRFSGSGSGTDFTLTISSLQPEDFATYYCQQYNSYPFTFGQGTKVEIKR
notes: CDR graft of murine 7H5, as human IgG1; also called humanized 7H5.v1-IgG
[1]
  Kd: 3.67 nM
  koff: 0.00018 s⁻¹
  kon: 49000 M⁻¹ s⁻¹
[2]
  Kd: 0.23 nM
  koff: 0.0002 s⁻¹
  kon: 870000 M⁻¹ s⁻¹
[3]
  Kd: 1.91 nM
  koff: 8.2e-05 s⁻¹
  kon: 43000 M⁻¹ s⁻¹
